Test results published in the supplement of paper PMC12764529.
± gives the half width of the 95% confidence interval.

Assay: folding stability dG unfold from trypsin proteolysis; higher = more stable
Outline: (§1)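 Digests were run with trypsin and chymotrypsin at 11 concentrations in threefold dilutions, plus a no-protease condition, on designed mini-proteins in a PA-tagged cDNA display construct. The mini-proteins were under 80 residues, had no cysteine, and were kept only when AlphaFold2 dimer inter-PAE was above 15. After sequencing, Bayesian fitting of the counts gave K50, from which unfolding free energy was derived against a sequence-predicted unfolded-state K50 and a shared folded-state K50, per protease or combined.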

Sequence | folding stability dG unfold [kcal/mol]
SAGGGMTTTTVTVTLDVPPDAGEEEVERLAEEIAAELKAAHPNITVTVEKITIDEKNATFTITVTTPGSAGG [r13_805_JUSTAS] | 3.19 ± 0.096
SAGGSAAPVPVGAELAAAAPGAAVTVELPDGVTATVTRVGDTLVVDVTRFSEPPLPVSSATATLPLSAGGSA [r15_558_JUSTAS] | -0.369 ± 0.066
SAGMVIAIKPGEPRILVSGLPPELVRRIAEELGAPDVVPVEPGVPAWTALENHPDPAAFLVIPPELALSAGG [r19_270_TrMRF] | -0.822 ± 0.7
SAGGMEVTLRITAEGPEQLEKIQEILDELDVEEVNPTENEVEFRFPGPEPLAKLKEIAEELGLKVEGSAGGS [r16_88_TrMRF] | -0.457 ± 0.23
SAGGSAGGSAGGMFYIKNEKGEVFPFTSLEEFLKQLEEKTGKPVKLNNIVIYPAAPHSLSAGGSAGGSAGGS [r10_62_TrMRF] | 1.04 ± 0.042
SAGPGHELKIDIERDPGNGIIKLSITYPNGIKYEMLIFRNPDNGKWFIFINIERDPGRIKIDIGIFPLSAGG [r19_394_TrROS] | 3.28 ± 0.083
SAGGSGVPLKITKVEVVGDKVVLTFEVPESLGTLKLNLTFELGGKPVEVEAEFDPETKYAVVVVGGSAGGSA [r2_261_TrMRF] | 2.37 ± 0.051
SAGMKKGDKFTVEFDLDPETRAEVEALLAAPGFAAEFDPSTGRLTLTLPSEIIDEVKKFPHIKKITKISAGG [r19_212_JUSTAS] | 1.05 ± 0.068
SAGGSAETVVVRIEVRDPETGETLELEIEVRRDMTEEELRELAEELARALKEAGYEVRVEVVRLPPSAGGSA [r15_268_TrROS_Hall] | 3.11 ± 0.073
SAGGMTVTIPYKGSPELAERVVEAIQEAFPEVRVEEVVVEPGDPTNITITVRFDNDVPASAIAEVLSSAGGS [r16_180_JUSTAS] | 2.24 ± 0.041
SSVEELSPEQRREQLRELLRQIREARREGDPEEERRLLEELRRLIEQLPDEEREEVRRLLEELGLPVEELSA [r9_182_TrROS_Hall] | 4.27 ± 0.21

Assay: folding stability dG unfold (combined trypsin and chymotrypsin); higher = more stable
Outline: as §1

Sequence | folding stability dG unfold [kcal/mol]
SAGGSAGGMKVTISSKGLPATITYYDPRNGTSTTVPINGDPEAAVAALKEATGLDVTDVTVTVESAGGSAGG [r6_763_JUSTAS] | 0.617 ± 0.12
SAGGSAGGSAGVSTTPDGVLVIKVKDPNTGKYTEIKVPTSRPEEAEKLKEKALEEGLELESAGGSAGGSAGG [r11_538_JUSTAS] | 1.2 ± 0.053
SAGMLPPEETVTLTLTFPASSPLSLEEILARTPDVEVLSLKREALPDDTVRLTITVRPDHVARVRAALASAG [r5_554_JUSTAS] | 4.32 ± 0.09
SAGGSAGGSAGPPPFKLKIDEMEMADDMFRIKLTIEDPNGEVTVDYWIGNQPFKLRIKPDSAGGSAGGSAGG [r17_45_TrROS] | 2.12 ± 0.17
SAGGSAGGSAKEIDFKFRSPGNGEEFPFRVEIDEFDPDDGPLLIKVEMPNGKPHTFPADDILSAGGSAGGSA [r18_334_TrROS] | 0.503 ± 0.11
SAGKSVKLSISVNPDNNSITITLEVEFKPDEKINIPAKFYLKDKEFNANYSVTKTPDGKAIATFTIELDSAG [r5_596_TrMRF] | 3.63 ± 0.38
SEVVLEVKVEVRVKRNENGELEVEVKVEVKLVELEPPEPRIELSEEEREKLKEEAEKLGLELTDEELEALSA [r9_487_TrROS_Hall] | 1.75 ± 0.2
SAGMEKKTFTFPTRTVLVVRGPDGTVLVVVDDPDGDPEVLTPDGTPVPYVDLPNGQRLYRFPAALFEKVSAG [r5_457_TrMRF] | 2.88 ± 0.063
SAGTAEEAKELARFFARELAPRNGMDVEIPDIKVETDPENGWIRITVEITFRWPHGRKQKHPFTIQIPVSAG [r5_381_TrROS] | 1.47 ± 0.063
SAGGMKIEIVEVTPTRIRIRLENGEVLTLEEIRKLLEEEGLPEPMTVDQIAELLRKRGLKITEIEIVPSAGG [r13_610_TrROS_Hall] | 3.18 ± 0.083
SAGGSAGGSASPIHATVSVDPETGTYTVHYPDGSTKTITGLSPEEVAALAKEMGIDEITLESAGGSAGGSAG [r3_78_JUSTAS] | 2.81 ± 0.044
SAGGSAGGKLVVLLVRRPDGSLALRVTDAENPAEALEAARRNGMEALPLEVDDLEEFLEAIGLGSAGGSAGG [r6_495_TrMRF] | 2.17 ± 0.13
SAGKALSPEELARYVREKYGLPADAPITIEEVPGKYTLSLPDLRVEVTVTDDTTTVTLRPPDPGPEAALSAG [r5_190_JUSTAS] | 1.42 ± 0.14
SAGGSAGGSAKYKPIGELEFEFENGIRLRVTFYEGEGEKIAIVEIEIPEPSLEEAIKILESSAGGSAGGSAG [r3_158_TrMRF] | 2.56 ± 0.09
SAGGSAGGSAGGMKTIVVPKDELEKLKEELEKKGKKVETSEDGTWTVDGKPVKVVVEPGSAGGSAGGSAGGS [r10_930_JUSTAS] | 0.594 ± 0.1
SAGGSAGGKEPFTVDKVEATVPFPGADGTEGVVLVTLPNGEKRLIPASELPLENLQPDGTVSSASAGGSAGG [r6_609_TrMRF] | 0.302 ± 0.11
SMRVRPDGYAVVIEVRVTEDAGPPPPPFEAIRDPETDRVTVVAGATPEEIVAFAEFPGVEVERIEVIPLLSA [r9_827_TrMRF] | 0.572 ± 0.099
SAGGSAGGSAGAGSWKDALKASSNETVTIPLPPTGKTLKITFSKSDDGSWKVDIEVFPAESAGGSAGGSAGG [r11_13_TrMRF] | 2.12 ± 0.15
SAGGPGMKMEPIAQIEFPGGRKITIHRMEMPNGNKMVNVNIMNPNGKTKTVMVPMGDIDEAIDALKLSAGGS [r16_588_TrROS] | 1.29 ± 0.12
SAGGSAGGSAMKIEIEKTEDTIKVRIKRKDGKEIEIEIPKENMSLEEIKKLAEELGIEKVEPSAGGSAGGSA [r18_83_TrROS_Hall] | 1.6 ± 0.17
SAGGMTVKITIEVEEPGKTAEELAEELARELEKAGFKVEVVSVEVEEVDGRLIVTIEVKVDSEEALKASAGG [r13_979_TrROS_Hall] | 2.52 ± 0.058
